Measurements from patent US12077763B2, “RNA-based control of powdery mildew” (Greenlight Biosciences, Inc., priority 2021, dated 2024).

B1: GS1870: dsRNA trigger SEQ ID NO 170; gene target Myosin-24 (nucleic acid)
chain: ATTTCTCATTCGCGTAGTTGATACAGAATTGCTCGAATGAGTTTTTTGCAAAGTGTTCGAATCCATAAATATCTAAAACTCCTATAAATGACTTGACACGGCTTAAGACTTCTTCAGCAGCCAACGCATAATTGATATTTTCAACAAGCCAGTCAAAAAGACTTGAATAAACAAATTTAGCGACCGAATCTCGAACAACAATGGCTTGCTGTTGGCTTAAGCTACTAACGACTTTATCTCCCCGGGTAATTAATTGCTTCTTGACTGTCCATCTAGCAAATTCCACCGGATCAATGCCCAAAATTGAAGCAGCAATCTCTAGAGAAGGCTCATTAGGAGTAAGTGAAGATTCATTTCTTGTGGCAGTAATCTTAACATTTCCAAGATGTAGTAATGCTGCAAGTATTTTAAATATTTCGGTCTGCTGATCCTGTTTGACTCCAATTGTTGCTAGGGACTTTTTGAGTGCTTCGAATTCGGCTTTATCATCAACTCCATCTATTGAAGGTGA
B2: GS1873: dsRNA trigger SEQ ID NO 153; gene target Probable serine/threonine-protein kinase fhkC (nucleic acid)
chain: CACATCGAGATATAAAACCCGAAAATATACTTCTCATGAATAGAACTCCTACTATTAAATTAGGTGATTTTGGCTTGGCCAAGATCGTTGGTGAGGAATCATTCACAACAAGCTTATGTGGAACACCCAGTTATGTTGCACCAGAGATCCTTGAAGACTCAGATAATCGGCGTTACAATCGAGCTGTTGATATTTGGGCTCTAGGTGTTGTTCTTTACATTTGCCTCTGTGGCTTCCCGCCATTCTCTGATGAATTGACCAGTAATGATTATCCTTACACTCTTGTCCAGCAGATTAAAATTGGTCAGTTCGACTTCCCATCGCCATATTGGGATAATATAGGAGACTCAGCTCTTGACCTCATTGACAAAATGTTAACAGTAGATGTTAACAAACGCATTAATATTGATCAATGTCTTGAACATCCATGGCTAACTCAAAGAGAATCAACGACTTTGCCAGGTGATTACTCTGAAGTTCTTGACGAACTT
B3: GS1869: dsRNA trigger SEQ ID NO 166; gene target General alpha-glucoside permease (nucleic acid)
chain: CGGCCCCATCGAACCATACTTTTTGCAAAAAGATGGCATCGCATAGAATTGAGCAAGCAAGAGATTATCGTAACCTTCCATAATAATACCAGTTGAGATAGCAACACTATAAACAGCAGCTGGCCACCACAATTTTAGAGCTTCGTTGACAGTCATATTCTTTTCAAGCTCTTCCGCACGATGGGCACCCTGAGTGGTATAGTACTGACTCTTTTCCAAAGAAGGAGCTCGGCCAATGTCCTCCTCATGCTTGGCAGTAGTTTCAAGAATGGACTTGTCGATAATAGACATTTTGAGAGTTGAGAAGTCAAAAAAATTTTGAAGTAAAGATCAGACTAAAGGTGAGTTTGGGGATTTAAAAAAAGAATATTAGGGTAAGGTTATGATTGAGTTCACAAGGGAATAGGTTTTCTAGAAAGAGCATGAAGGAAAGACATAAAACCTGAGAGTGATATTTGGATAATTTTGAATTCCATCGTCAACAGCTTCGGGAGACAAGTCTTTATAGAATTCTGAT
B4: GS1874: dsRNA trigger SEQ ID NO 120; gene target eka-like_protein (nucleic acid)
chain: CTAGAGCAGCCACGTGTAGCATGAAACCCATGACAACGTTTGCATTGTTGTATTGGTTGGCATGGTTTGTACAGTATAGCGACTCCTGATTCGTCGAATAGTCGGAATCCGGGTCATGGAGCTTGTTCTCGGGAAAAATGTGCCAGCCAAGAGCGATGTGGAGCACCAGAACGAGTCTTACCATGTACCCTAACCATCTTAGGCGCAAAGTTAGTGACTTTGATAATTTCGGCTACAAGGTTAGTATCGTCGACTGTCACACTTCCACTAGAAGTTTGACGGGCAACGGGAACAGTTGCAATACGATATGTAATAAGATCAGACGCCGGTTCTAGCTTGGCACCCTGAAAAGATATTCTATCACTGTCATTTAGTAGCTTTTGCCTTATCTCCTTTTCTTTGATAGTAAGTGCGAAGCCAGTGGGGGTTCGAGCGATGAGCGTCACATCAGATGGTACACAATTTAGATTTTTGCACAATATTT

test system: E. necator; assay: Leaf disc assay, dry inoculum (settling tower), decrease in disease severity / hyphal growth (Example 2); details: decrease in disease severity (hyphal growth) relative to untreated control; time point 1 (untreated control hyphal growth ≥50%); value ± SE

**Q.** For B1, which “% decrease =/− SE TP1” value is on record?
**A.** The value was 11 ± 5%.

**Q.** Which “% decrease =/− SE TP1” value does the source give for B2 here?
**A.** Its value is 4 ± 4%.

**Q.** How did the “% decrease =/− SE TP1” value turn out when B3 was run?
**A.** Its value is 21 ± 7%.

**Q.** B4 was tested. Which “% decrease =/− SE TP1” value did it give?
**A.** The value was 25 ± 4%.

same assay, conditions: decrease in disease severity (hyphal growth) relative to untreated control; time point 2; value ± SE

**Q.** For B1, which “% decrease =/− SE TP2” value is on record?
**A.** Its value is 13 ± 8%.

**Q.** How did the “% decrease =/− SE TP2” value turn out when B3 was run?
**A.** The value was 17 ± 7%.

**Q.** With B4 as the molecule, how does the “% decrease =/− SE TP2” value read?
**A.** Its value is 14 ± 5%.
